The assay deals with Momordica charantia 7S globulin (Momordica charantia). Nature of the assay: SEC; HiLoad 16/60 Superdex 200 pg, 50 mM Tris pH 7.4 with 150 mM NaCl, 0.5 ml/min; peak at ~69.2 ml, mass estimated from a calibration with high molecular weight standards.

As for “Momordica charantia 7S globulin (natural protein)”, the stoichiometry N was 3.

One may read the stoichiometry N as the number of molecules, sites or subunits per partner or assembly.

Source of the values: PMC6981215.
